T1: human MAdCAM (full length) (human, UniProt Q13477 19-382)
T1 sequence (looked up): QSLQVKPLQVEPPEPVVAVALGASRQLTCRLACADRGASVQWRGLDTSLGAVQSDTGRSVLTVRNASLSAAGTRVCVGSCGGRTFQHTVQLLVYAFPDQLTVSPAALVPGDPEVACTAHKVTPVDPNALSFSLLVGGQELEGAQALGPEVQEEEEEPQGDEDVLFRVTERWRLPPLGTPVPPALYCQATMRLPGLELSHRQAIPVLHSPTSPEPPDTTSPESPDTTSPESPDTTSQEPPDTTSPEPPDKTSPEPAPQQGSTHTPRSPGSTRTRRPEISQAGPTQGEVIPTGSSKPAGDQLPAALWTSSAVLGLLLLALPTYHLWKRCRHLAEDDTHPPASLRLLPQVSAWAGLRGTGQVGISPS

T2: recombinant mouse MAdCAM (mouse, UniProt Q61826 22-365)
T2 sequence (looked up): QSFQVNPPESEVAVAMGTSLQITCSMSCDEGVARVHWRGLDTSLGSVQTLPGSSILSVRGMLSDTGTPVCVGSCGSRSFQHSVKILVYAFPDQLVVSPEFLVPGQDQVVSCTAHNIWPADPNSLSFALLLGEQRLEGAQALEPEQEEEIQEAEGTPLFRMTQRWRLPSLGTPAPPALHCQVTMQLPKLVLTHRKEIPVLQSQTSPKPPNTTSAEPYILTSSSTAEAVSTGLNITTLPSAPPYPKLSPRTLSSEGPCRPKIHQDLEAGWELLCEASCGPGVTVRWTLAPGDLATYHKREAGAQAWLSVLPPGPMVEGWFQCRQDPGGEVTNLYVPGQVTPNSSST

T3: chimeric cynomolgus/human MAdCAM (cynomolgus; human, UniProt Q13477 226-382, limits assumed)
T3 sequence: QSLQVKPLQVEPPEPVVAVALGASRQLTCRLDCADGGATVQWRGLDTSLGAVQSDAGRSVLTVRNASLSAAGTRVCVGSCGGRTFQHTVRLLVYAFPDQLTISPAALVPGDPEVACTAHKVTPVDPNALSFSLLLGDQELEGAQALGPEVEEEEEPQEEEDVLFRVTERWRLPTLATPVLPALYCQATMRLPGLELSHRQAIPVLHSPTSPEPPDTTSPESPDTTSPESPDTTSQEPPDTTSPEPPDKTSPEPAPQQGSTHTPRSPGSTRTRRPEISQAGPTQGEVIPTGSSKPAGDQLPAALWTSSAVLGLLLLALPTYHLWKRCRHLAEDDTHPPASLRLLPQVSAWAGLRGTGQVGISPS

B1: anti-MAdCAM monoclonal antibody 6.14.2 (antibody, human IgG4, kappa, V domains shown)
VH: EVQLLESGGGLVQPGGSLRLSCAASGLTFNNSAMTWVRQAPGKGLEWVSTTSGSGGTTYYADSVKGRFTISRDSPKNTLYLQMNSLRAEDTAVYYCAARGYSYGTTPYEYWGQGTLVTVSS
VL: DIQMTQSPSSLSASVGDRVTITCRASRSISSYLNWYQQKPGKAPKVLIFFVSSLQSGVPSRFSGSGSGTDFTLTISSLQPEDFATYYCQQNYIPPITFGQGTRLEIRR
notes: human IgG4 kappa from hybridoma 6.14.2
B2: anti-MAdCAM monoclonal antibody 1.7.2 (antibody, human IgG2, kappa, V domains shown)
VH: EVQLVESGGGLVKPGGSLRLSCVASGFTFTNAWMIWVRQAPGKGLEWVGRIKRKTDGGTTDYAAPVKGRFTISRDDSKNTLYLQMNSLKTEDTAVYYCTTGGVAEDYWGQGTLVTVSS
VL: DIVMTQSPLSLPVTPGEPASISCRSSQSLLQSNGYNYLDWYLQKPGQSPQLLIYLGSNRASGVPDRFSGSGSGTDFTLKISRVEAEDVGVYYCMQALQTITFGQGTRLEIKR
notes: human IgG2 kappa from hybridoma 1.7.2; biotinylated for staining of human sections
B3: anti-MAdCAM monoclonal antibody 1.8.2 (antibody, human IgG2, kappa, V domains shown)
VH: B2 VH with A24V
VL: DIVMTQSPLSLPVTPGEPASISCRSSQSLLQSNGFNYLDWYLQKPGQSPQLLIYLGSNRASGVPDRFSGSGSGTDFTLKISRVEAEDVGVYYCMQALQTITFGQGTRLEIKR
notes: human IgG2 kappa from hybridoma 1.8.2
B4: anti-MAdCAM monoclonal antibody 6.73.2 (antibody, human IgG4, kappa, V domains shown)
VH: EVQLLESGGDLVQPGGSLRLSCAASGFTFRSYAMNWVRQAPGKGLEWVSVISGRGGTTYYADSVKGRFTISRDNSKNTLYLQMNSLRAEDAAVYYCAKIAVAGEGLYYYYGMDVWGQGTTVTVSS
VL: DIQMTQSPSSLSASVGDRVTFTCRASQNITNYLNWYQQKPGKAPKLLIYAASSLPRGVPSRFRGSGSGTDFTLTISSLQPEDFATYYCQQSYSNPPECGFGQGTTLDIKR
notes: human IgG4 kappa from hybridoma 6.73.2
B5: anti-MAdCAM monoclonal antibody 6.77.1 (antibody, human IgG4, kappa, V domains shown)
VH: EVQLVESGGGLVKPGGSLRLSCAASGFTFSSYSMNWVRQAPGKGLEWVSSISSSSSYIYYADSVKGRFTISRDNAKNSLYLQMNSLRAEDTAVYYCARDGYSSGWSYYYYYGMDVWGQGTTVTVSS
VL: DIVMTQTPLSLSVTPGQPASISCNSSQSLLLSDGKTYLNWYLQKPGQPPQLLIYEVSNRFSGVPDRFSGSGSGTDFTLKISRVEAEDVGVYSCMQSIQLMCSFGQGTKLEIKR
notes: human IgG4 kappa from hybridoma 6.77.1
B6: anti-MAdCAM monoclonal antibody 7.16.6 (antibody, human IgG2, kappa, V domains shown)
VH: QVQLVQSGAEVKKPGASVKVSCKASGYTFTSYGINWVRQAPGQGLEWMGWISVYSGNTNYAQKVQGRVTMTADTSTSTAYMDLRSLRSDDTAVYYCAREGSSSSGDYYYGMDVWGQGTTVTVSS
VL: DIVMTQTPLSLSVTPGQPASISCKSSQSLLHTDGTTYLYWYLQKPGQPPQLLIYEVSNRFSGVPDRFSGSGSGTDFTLKISRVEAEDVGIYYCMQNIQLPWTFGQGTKVEIKR
notes: Alexa488-labelled in the sandwich ELISA, biotinylated for staining of human sections
B7: modified anti-MAdCAM monoclonal antibody 7.26.4-mod (antibody, human IgG2, kappa, V domains shown)
VH: B6 VH with K23E, N35D, V64L, T71S, A72T, D82E
VL: B6 VL with H31Y, T32S, T35K, Y39F, I90V, N96S
B8: modified anti-MAdCAM monoclonal antibody 6.77.1-mod (antibody, human IgG2, kappa, V domains shown)
VH: B5 VH
VL: B5 VL with N24K, C101S
B9: modified anti-MAdCAM monoclonal antibody 6.22.2-mod (antibody, human IgG2, kappa, V domains shown)
VH: QVQLVESGGGVVQPGRSLRLSCAASGFTFSSDGMHWVRQAPGKGLEWVAIIWYDGSNKYYADSVKGRFTISRDNSKNTLYLQMNSLRAEDTAVYYCARDPGYYYGMDVWGQGTTVTVSS
VL: EIVLTQSPDFQSVTPKEKVTITCRASQRIGSSLHWYQQKPDQSPKLLIKYASQSFSGVPSRFSGSGSGTDFTLTINSLEAEDAATYYCHQSGRLPLTFGGGTKVEIKR
B10: modified anti-MAdCAM monoclonal antibody 6.67.1-mod (antibody, human IgG2, kappa, V domains shown)
VH: QVQLQESGPGLVKPSETLSLTCTVSGDSISSNYWSWIRQPAGKGLEWIGRIYTSGGTNSNPSLRGRVTMSVDTSKNQFSLKLSSVTAADTAVYYCARDRITIIRGLIPSFFDYWGQGTLVTVSS
VL: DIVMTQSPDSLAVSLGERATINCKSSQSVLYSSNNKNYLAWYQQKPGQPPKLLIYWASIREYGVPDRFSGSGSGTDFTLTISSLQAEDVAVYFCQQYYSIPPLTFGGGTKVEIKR
B11: modified anti-MAdCAM monoclonal antibody 6.34.2-mod (antibody, human IgG2, kappa, V domains shown)
VH: QVQLVESGGGVVQPGRSLRLSCAASGFTFSSYGMHWVRQAPGKGLEWVAVISNDGNNKYYADSVKGRFTISRDNSKNTLYLQMNSLRAEDTAVYYCARDSTAITYYYYGMDVWGQGTTVTVSS
VL: DIQMTQSPSSLSASVGDRVTITCRASQSISSYLNWYQQKPGKAPKLLIYAASGLKRGVPSRFSGSGSGTDFTLTISSLQPEDFATYYCHQSYSLPFTFGPGTKVDIKR

Changes are numbered by the printed parent chain.

One may read the Kd as the concentration at which binding is half-saturated. As usually defined, the koff is the first-order rate constant of dissociation. A lower koff goes with slow dissociation. For orientation: kon means the rate constant with which the complex forms. Low values mean slower complex formation, high ones faster complex formation.

One assay has as its target T4, MAdCAM-IgG1 Fc fusion protein (human).
T4 construct: Made in CHO-DHFR cells; also called MAdCAM-IgFc
The experiment in a line: SPR BIAcore protocol 2: mAb amine-coupled, MAdCAM-IgG1 Fc injected. The method, then:
Affinity-purified mAb were immobilized onto the dextran layer of a CMS biosensor chip using amine coupling. […] Samples of MAdCAM-IgG₁ Fc fusion protein in running buffer were prepared at concentrations ranging from 0.2-55 nM (a 0 nM solution comprising running buffer alone was included as a zero reference). Samples were randomized and injected in duplicate for 3 mM each across 4 flow cells using HBS-EP (10 mM HEPES pH 7.4, 150 mM NaCl, 3 mM EDTA, 0.005% Surfactant P20) as running buffer. A flow rate of 100 μL/min was used to minimize mass transport limitations. Dissociation of MAdCAM-IgG₁ Fc fusion protein was monitored for 180 mins, the surface regenerated by a 6 sec injection of 25 mM H₃PO₄ (50 μL/min), or 10 mM (6.22.2), 20 mM (6.67.1, 6.73.2, 6.77.1) to 25 mM (6.34.2) and 45 mM NaOH (6.14.2) and the data analysed using the BIAevaluation (v3.1) software package.
In general terms: SPR reads the build-up and loss of mass on a sensor chip optically.
B1 displayed a dissociation constant Kd of less than 0.01 nM, a koff of less than 5e-06 s⁻¹ and a kon of 500000 M⁻¹ s⁻¹.

Take B2: the Kd turned out to be 0.0236 nM, the koff was 1.3e-07 s⁻¹ and the kon stood at 5500 M⁻¹ s⁻¹.

Consider B3, for which the Kd was determined as 0.128 nM, the koff came to 2.3e-05 s⁻¹ and the kon worked out at 180000 M⁻¹ s⁻¹.

A further assay addresses T4, MAdCAM-IgG1 Fc fusion protein. The experiment in a line: cell-based or functional assay.
B1: the “Mean IC50, JY cell adhesion to MAdCAM IgG1 Fc fusion” value (shortened to “Mean IC50 … to MAdCAM IgG1 Fc fusion”) was found to be 0.011 µg/mL.

Turning to B4, the “Mean IC50 … to MAdCAM IgG1 Fc fusion” value amounted to 0.02 µg/mL.

Regarding B2, the “Mean IC50 … to MAdCAM IgG1 Fc fusion” value came to 0.03 µg/mL.

Turning to B3, the “Mean IC50 … to MAdCAM IgG1 Fc fusion” value was 0.027 µg/mL.

The next assay deals with T1, human MAdCAM (full length). Put plainly: cell-based or functional assay.
As for B1, the “Mean IC50, JY cell adhesion, MAdCAM FlpIn CHO Assay” value (“Mean IC50 … MAdCAM FlpIn CHO Assay” for short) was 0.291 µg/mL.

For B5, the “Mean IC50 … MAdCAM FlpIn CHO Assay” value turned out to be 0.52 µg/mL.

Take B4: the “Mean IC50 … MAdCAM FlpIn CHO Assay” value amounted to 0.369 µg/mL.

On to B2, for which the “Mean IC50 … MAdCAM FlpIn CHO Assay” value came to 0.052 µg/mL.

On to B3, for which the “Mean IC50 … MAdCAM FlpIn CHO Assay” value was found to be 0.424 µg/mL.

Another assay deals with T2, recombinant mouse MAdCAM. The experiment in a line: ELISA. (In an ELISA, binding on a coated surface is turned into a signal by an enzyme label.)
Consider B1, for which the binding result was “no binding”.

For B5, the binding result was “no binding”.

For the molecule B6, the binding result is “no binding”.

Consider B4, for which the binding result was “no binding”.

With B2, the binding result was “no binding”.

Take B3: the binding result is listed as “no binding”.

Another assay has as its target T3, chimeric cynomolgus/human MAdCAM. Put plainly: cell-based or functional assay.
Consider B1, for which the “Functional IC50, cynomolgus/human MAdCAM-CHO/JY adhesion assay” value is 0.53 µg/mL.

On to B5, for which the “Functional IC50, cynomolgus/human MAdCAM-CHO/JY adhesion assay” value was 0.64 µg/mL.

A further assay has as its target T4, MAdCAM-IgG1 Fc fusion protein. Put plainly: cell-based or functional assay. The source holds these as a separate data set.
Take B7: the “MAdCAM IgG1 Fc fusion Assay Mean IC50 (Modified)” value came to 0.033 µg/mL.

Consider B8, for which the “MAdCAM IgG1 Fc fusion Assay Mean IC50 (Modified)” value is 0.077 µg/mL.

Take B9: the “MAdCAM IgG1 Fc fusion Assay Mean IC50 (Modified)” value was 0.058 µg/mL.

Regarding B10, the “MAdCAM IgG1 Fc fusion Assay Mean IC50 (Modified)” value was 0.037 µg/mL.

In the case of B11, the “MAdCAM IgG1 Fc fusion Assay Mean IC50 (Modified)” value stood at 0.049 µg/mL.

The target is the same in the next assay. Put plainly: SPR BIAcore protocol 1: mAb captured, MAdCAM-IgG1 Fc injected. The method, then: To perform kinetic analyses, a high density mouse anti-human (IgG₂ and IgG₄) antibody surface over a CMS BIAcore sensor chip was prepared using routine amine coupling. Hybridoma supernatants were diluted 10, 5, 2-fold in HBS-P (10 mM HEPES pH 7.4, 150 mM NaCl, 0.005% Surfactant P20) running buffer containing 100 μg/mL BSA and 10 mg/mL carboxymethyldextran or used neat. Each mAb was captured onto a separate surface using a […] contact time and a 5 mM wash for stabilization of the mAb baseline. MAdCAM-IgG₁ Fc (141 nM) fusion protein was then injected at over all surfaces for one minute, followed by a 3 mM dissociation. The data were normalized for the amount of antibody captured on each surface and evaluated with global fit Langmuir 1:1, using baseline drift models available on the BIAevaluation software provided by BIAcore.
Regarding B1, the Kd was no more than 0.0077 nM, the koff is no more than 1e-05 s⁻¹ and the kon is 130000 M⁻¹ s⁻¹.

In the case of B5, the Kd is no more than 0.0067 nM, the off-rate constant (koff) was no more than 1e-05 s⁻¹ and the kon is 1.5e+06 M⁻¹ s⁻¹.

Molecule B4 displayed a Kd of 0.093 nM, a koff of 0.00013 s⁻¹ and a kon of 1.4e+06 M⁻¹ s⁻¹.

Molecule B2 had a Kd of no more than 0.042 nM, a koff of no more than 1e-05 s⁻¹ and a kon of 240000 M⁻¹ s⁻¹.

Turning to B3, the Kd was no more than 0.035 nM, the koff is no more than 1e-05 s⁻¹ and the kon came to 290000 M⁻¹ s⁻¹.

Values taken from patent US20190300605A1 (Pfizer, published 2019).
